Laboratory results from article PMC6168691, “The amino‐terminal domain of Mycobacterium tuberculosis ClpB protein plays a crucial role in its substrate disaggregation activity” (FEBS Open Bio, 2018).
Several values for one entry are separate records, joined by “and”; a condition that tells them apart may be missing. Equal entries are not always repeated.

Experiments:
FITC-labelled casein = assay: fluorescence polarisation
[1] = target: Mycobacterium tuberculosis DnaK (Mycobacterium tuberculosis) (UniProt P9WMJ9)
[2] = target: recombinant firefly luciferase (firefly) [luciferase: P08659]
Chain of recombinant firefly luciferase (firefly) [luciferase: P08659] (P08659 whole entry, the tested form may be a part): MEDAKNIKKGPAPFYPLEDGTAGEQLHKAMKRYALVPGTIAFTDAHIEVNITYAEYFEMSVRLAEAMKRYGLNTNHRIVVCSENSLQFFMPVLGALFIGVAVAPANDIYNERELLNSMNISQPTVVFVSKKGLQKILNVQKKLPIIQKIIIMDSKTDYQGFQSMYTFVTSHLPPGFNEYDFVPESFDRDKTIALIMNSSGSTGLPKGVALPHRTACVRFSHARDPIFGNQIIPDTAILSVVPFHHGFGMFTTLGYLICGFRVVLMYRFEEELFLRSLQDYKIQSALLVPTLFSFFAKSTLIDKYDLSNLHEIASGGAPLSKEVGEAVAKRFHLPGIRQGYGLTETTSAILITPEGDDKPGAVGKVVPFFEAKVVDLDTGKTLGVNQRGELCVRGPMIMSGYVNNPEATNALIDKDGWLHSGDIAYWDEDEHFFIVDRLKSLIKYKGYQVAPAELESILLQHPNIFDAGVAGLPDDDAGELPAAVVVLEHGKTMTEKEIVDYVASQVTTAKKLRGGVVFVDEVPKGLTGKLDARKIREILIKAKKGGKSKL

[3] = target: KJE chaperone complex (DnaK, DnaJ1, GrpE of Mycobacterium tuberculosis) (Mycobacterium tuberculosis | Mycobacterium tuberculosis H37Rv) (UniProt P9WMJ9)
[4] = target: malate dehydrogenase from pig heart (pig) (UniProt P00346)
Chain of malate dehydrogenase from pig heart (pig) (P00346 25-338): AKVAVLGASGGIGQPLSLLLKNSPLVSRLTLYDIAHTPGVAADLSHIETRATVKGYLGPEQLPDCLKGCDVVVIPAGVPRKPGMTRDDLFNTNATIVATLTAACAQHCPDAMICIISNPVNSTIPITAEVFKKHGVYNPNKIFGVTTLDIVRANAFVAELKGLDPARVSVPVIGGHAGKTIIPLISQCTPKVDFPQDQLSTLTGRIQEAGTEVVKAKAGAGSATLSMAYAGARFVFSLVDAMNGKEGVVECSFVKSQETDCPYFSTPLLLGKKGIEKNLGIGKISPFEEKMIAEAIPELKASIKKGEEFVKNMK

[5] = target: malate dehydrogenase from pig heart (pig) (UniProt P00346); remark: listed apart in the source
[6] = target: recombinant firefly luciferase (firefly) [luciferase: P08659]; remark: listed apart in the source
[7] = target: N-terminally truncated Mycobacterium tuberculosis ClpB (ClpB∆N, residues 149–848) (Mycobacterium tuberculosis H37Rv) (UniProt P9WPD1); assay: SEC; Superdex-200 (1 × 60 cm), buffer A; protein loaded at 6 mg/mL, no nucleotide
[8] = target: N-terminally truncated Mycobacterium tuberculosis ClpB (ClpB∆N, residues 149–848) (Mycobacterium tuberculosis H37Rv) (UniProt P9WPD1); assay: SEC; Superdex-200, buffer A; protein 0.2 mg/mL incubated with 5 mM ATP for 10 min at room temperature before loading
[9] = target: N-terminally truncated Mycobacterium tuberculosis ClpB (ClpB∆N, residues 149–848) (Mycobacterium tuberculosis H37Rv) (UniProt P9WPD1); assay: SEC; Superdex-200 (1 × 60 cm), buffer A (50 mM Tris/HCl pH 7.5, 100 mM KCl, 10% glycerol, 1 mM EDTA, 1 mM DTT); protein loaded at 0.2 mg/mL, no nucleotide
[10] = target: T1, Mycobacterium tuberculosis ClpB, full length (residues 1–848) (Mycobacterium tuberculosis H37Rv, UniProt P9WPD1 1-848); assay: fluorescence polarisation; conditions: both partners purified
T1 construct: also called Mtb ClpB; WT ClpB

[11] = target: T1, Mycobacterium tuberculosis ClpB, full …; assay: fluorescence polarisation; conditions: both partners purified; remark: listed apart in the source

Molecule: Mycobacterium tuberculosis ClpB F140T (from UniProt P9WPD1 1-848) (natural protein)
- Kd (FITC-labelled casein): 24 µM

Molecule: Mycobacterium tuberculosis ClpB L97D (from UniProt P9WPD1 1-848) (natural protein)
- Kd (FITC-labelled casein): 10 µM

Molecule: Mycobacterium tuberculosis ClpB L101Q (from UniProt P9WPD1 1-848) (natural protein)
- Kd (FITC-labelled casein): 5.3 µM

Molecule: Mycobacterium tuberculosis ClpB V141K (from UniProt P9WPD1 1-848) (natural protein)
- Kd (FITC-labelled casein): 10 µM

Molecule: N-terminally truncated Mycobacterium tuberculosis ClpB (ClpB∆N, residues 149–848) (from UniProt P9WPD1 149-848) (domain or fragment)
- ATPase activity of ClpB∆N left at 1 mM ADP (5 mM ATP) with 1 μM DnaK [1]: 17%
- prevention of heat aggregation of luciferase by the highest concentration of ClpB∆N in the absence of ATP [2]: 24%
- reactivation of small aggregates of MDH by 1 μM ClpB∆N with 1 μM KJE complex (about 25% by ClpB∆N alone, 3.6% by KJE alone) [3]: 32%
- reactivation of small aggregates of MDH by 1 μM ClpB∆N alone, percent of native MDH activity [4]: 25%
- drop of reactivation activity of ClpB∆N alone on large against small aggregates of MDH [5]: 80%
- drop of reactivation activity of ClpB∆N with KJE on large against small aggregates of MDH [5]: 48%
- reactivation of large aggregates of luciferase by ClpB∆N against ClpB, alone and with KJE (luminescence) [6]: > 20%
- Kd (FITC-labelled casein): 6.94 µM
- stoichiometry N [7]: 6 and 4
- stoichiometry N [8]: 6
- stoichiometry N [9]: 6 and 2

B1: FITC-labelled casein (natural protein)
chain: RPKHPIKHQGLPQEVLNENLLRFFVAPFPEVFGKEKVNELSKDIGSESTEDQAMEDIKQMEAESISSSEEIVPNSVEQKHIQKEDVPSERYLGYLEQLLRLKKYKVPQLEIVPNSAEERLHSMKEGIHAQQKEPMIGVNQELAYFYPELFRQFYQLDAYPSGAWYYVPLGTQYTDAPSFSDIPNPIGSENSEKTTMPLW
modifications: FITC label
- Kd [10]: 0.88 ± 0.47 µM
- Kd [11]: 0.9 µM
